In FireProtDB (doi:10.1021/bi951726o):

Settings: Escherichia coli (strain K12), pH 7.8, Urea, NMR, Potassium phosphate 58 mM, reversible: yes, whole UniProt chain shown

B1: Tryptophan synthase alpha chain wild type, P0A877 (protein)
chain: MERYESLFAQLKERKEGAFVPFVTLGDPGIEQSLKIIDTLIEAGADALELGIPFSDPLADGPTIQNATLRAFAAGVTPAQCFEMLALIRQKHPTIPIGLLMYANLVFNKGIDEFYAQCEKVGVDSVLVADVPVEESAPFRQAALRHNVAPIFICPPNADDDLLRQIASYGRGYTYLLSRAGVTGAENRAALPLNHLVAKLKEYNAAPPLQGFGISAPDQVKAAIDAGAAGAISGSAIVKIIEQHINEPEKMLAALKVFVQPMKAATRS
For B1, the “denaturant midpoint (higher = more stable)” value (shortened to “denaturant midpoint”) (5 °C) was 4.8 M, the unfolding free energy (5 °C) was 4.8 kcal/mol and the “denaturant midpoint” value (10 °C) was 4.6 M. The unfolding free energy (10 °C) was 5.5 kcal/mol, the “denaturant midpoint” value (15 °C) was 4.7 M and the unfolding free energy (15 °C) was 6.1 kcal/mol. For the same protein, the “denaturant midpoint” value (20 °C) was 5.4 M, the unfolding free energy (20 °C) was 7.5 kcal/mol and the “denaturant midpoint” value (25 °C) was 5.9 M. The unfolding free energy (25 °C) was 8.2 kcal/mol.
